In US20240124531A1, “COMPOUNDS AND METHODS FOR EXTENDING HALF LIFE OF BIOMOLECULES” (AFFILOGIC, priority 2021, published 2024):

Tests used:
[1] = fluorescein alone, single i.v. injection, analysis of literature data (Chahal et al.); cited from earlier work
Rabbit serum albumin = biological target: T1, Rabbit serum albumin (Rabbit, UniProt P49065 25-608); assay: biolayer interferometry, cross reactivity on albumins of different species; legend: '-' symbol refers to an absence of detectable binding
T1 construct: also called RabSA; RabSa

human serum albumin = biological target: T2, human serum albumin (human, UniProt P02768 25-609, biotinylated (sites not given) in the biolayer interferometry of Example 1); assay: biolayer interferometry (octet red96); biotinylated HSA on streptavidin biosensors, Nanofitin 15.6-1000 nM
T2 construct: Biotinylated HSA immobilised on streptavidin biosensors; also called HSA

[2] = biological target: T3, human serum albumin Domain I (aa1-197) (human, UniProt P02768 25-221); assay: biolayer interferometry, His-tagged F06 on Ni-NTA biosensors, albumin domain at 250 nM, response at 180 s
T3 construct: range 1-197; Domain III ends at 585, so they probably count on mature albumin (585 residues) and not on the precursor entry
Text: (§1) The albumin is described as having three domains, dubbed domain I, II and III. Interaction of the albumin with the FcRn receptor involves domain I and III. Domain I (aa1-197), domain II (aa189-385), and domain III (aa381-585) and Domain I-II (aa1-385) were obtained from Albumin Bioscience. Interaction of the anti-albumin Nanofitins with the different domains was investigated by biolayer interferometry according to the following procedure. […] The sensors were then allowed to equilibrate for 60 sec in protein free blocking buffer (Thermo Scientific) supplemented with 0.002% of tween20.

[3] = biological target: T4, human serum albumin domain III (aa381-585) (human, UniProt P02768 405-609); assay: as above
T4 construct: range 381-585; The residue numbers probably count on mature albumin (585 residues)
Text: as §1

Rat serum albumin = biological target: T5, Rat serum albumin (Rat, UniProt P02770 25-608); assay: biolayer interferometry, cross reactivity pattern (graded strength of binding)
T5 construct: also called RSA

Mouse serum albumin = biological target: T6, Mouse serum albumin (Mouse, UniProt P07724 25-608); assay: as above
T6 construct: also called MSA

[4] = biological target: T7, Cynomolgus monkey serum albumin (Cynomolgus monkey, UniProt A2V9Z4 25-608); assay: as above
T7 construct: also called CSA
T7 sequence (A2V9Z4 25-608 limits assumed): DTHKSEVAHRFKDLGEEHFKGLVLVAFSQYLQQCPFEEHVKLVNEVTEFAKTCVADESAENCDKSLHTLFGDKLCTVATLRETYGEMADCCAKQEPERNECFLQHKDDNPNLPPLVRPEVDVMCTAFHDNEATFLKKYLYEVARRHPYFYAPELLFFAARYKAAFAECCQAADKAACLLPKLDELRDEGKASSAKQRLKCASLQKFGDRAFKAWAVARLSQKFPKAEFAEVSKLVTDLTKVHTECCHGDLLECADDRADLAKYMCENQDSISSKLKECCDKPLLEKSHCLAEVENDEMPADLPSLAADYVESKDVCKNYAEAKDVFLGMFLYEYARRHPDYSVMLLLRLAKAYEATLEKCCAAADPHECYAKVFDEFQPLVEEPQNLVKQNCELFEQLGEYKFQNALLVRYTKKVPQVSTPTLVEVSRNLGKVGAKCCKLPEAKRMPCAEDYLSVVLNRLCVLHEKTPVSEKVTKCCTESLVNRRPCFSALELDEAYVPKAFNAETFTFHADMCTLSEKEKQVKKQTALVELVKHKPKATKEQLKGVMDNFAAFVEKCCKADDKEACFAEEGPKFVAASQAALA

T1 sequence (P49065 25-608 limits assumed): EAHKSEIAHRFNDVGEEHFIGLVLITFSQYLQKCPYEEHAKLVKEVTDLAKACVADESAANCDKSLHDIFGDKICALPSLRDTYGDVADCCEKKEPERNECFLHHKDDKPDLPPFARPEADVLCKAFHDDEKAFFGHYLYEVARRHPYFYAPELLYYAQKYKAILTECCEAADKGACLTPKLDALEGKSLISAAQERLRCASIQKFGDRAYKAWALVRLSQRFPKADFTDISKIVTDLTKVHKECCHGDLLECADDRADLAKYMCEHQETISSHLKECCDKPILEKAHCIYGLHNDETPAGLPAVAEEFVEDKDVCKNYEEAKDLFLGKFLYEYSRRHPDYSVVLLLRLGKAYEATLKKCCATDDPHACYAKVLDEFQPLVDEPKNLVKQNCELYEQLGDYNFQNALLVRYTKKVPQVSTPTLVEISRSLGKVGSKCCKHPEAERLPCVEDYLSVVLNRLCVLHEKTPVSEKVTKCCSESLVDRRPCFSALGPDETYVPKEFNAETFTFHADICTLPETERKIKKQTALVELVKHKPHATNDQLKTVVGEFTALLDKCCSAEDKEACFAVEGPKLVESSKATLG
T5 sequence (P02770 25-608 limits assumed): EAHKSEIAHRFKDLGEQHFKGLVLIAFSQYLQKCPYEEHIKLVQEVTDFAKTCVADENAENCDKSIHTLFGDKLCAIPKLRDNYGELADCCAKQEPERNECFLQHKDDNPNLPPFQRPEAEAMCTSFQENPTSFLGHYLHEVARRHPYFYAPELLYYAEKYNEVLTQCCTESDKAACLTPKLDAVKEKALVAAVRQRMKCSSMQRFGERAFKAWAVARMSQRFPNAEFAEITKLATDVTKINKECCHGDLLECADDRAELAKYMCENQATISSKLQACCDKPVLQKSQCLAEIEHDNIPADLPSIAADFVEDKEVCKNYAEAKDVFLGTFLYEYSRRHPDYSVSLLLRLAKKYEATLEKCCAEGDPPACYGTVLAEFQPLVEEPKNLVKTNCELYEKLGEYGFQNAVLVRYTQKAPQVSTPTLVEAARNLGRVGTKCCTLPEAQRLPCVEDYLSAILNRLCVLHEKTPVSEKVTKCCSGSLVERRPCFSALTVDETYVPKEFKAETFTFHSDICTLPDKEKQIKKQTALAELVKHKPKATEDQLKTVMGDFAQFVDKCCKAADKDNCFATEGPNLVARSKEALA
T6 sequence (P07724 25-608 limits assumed): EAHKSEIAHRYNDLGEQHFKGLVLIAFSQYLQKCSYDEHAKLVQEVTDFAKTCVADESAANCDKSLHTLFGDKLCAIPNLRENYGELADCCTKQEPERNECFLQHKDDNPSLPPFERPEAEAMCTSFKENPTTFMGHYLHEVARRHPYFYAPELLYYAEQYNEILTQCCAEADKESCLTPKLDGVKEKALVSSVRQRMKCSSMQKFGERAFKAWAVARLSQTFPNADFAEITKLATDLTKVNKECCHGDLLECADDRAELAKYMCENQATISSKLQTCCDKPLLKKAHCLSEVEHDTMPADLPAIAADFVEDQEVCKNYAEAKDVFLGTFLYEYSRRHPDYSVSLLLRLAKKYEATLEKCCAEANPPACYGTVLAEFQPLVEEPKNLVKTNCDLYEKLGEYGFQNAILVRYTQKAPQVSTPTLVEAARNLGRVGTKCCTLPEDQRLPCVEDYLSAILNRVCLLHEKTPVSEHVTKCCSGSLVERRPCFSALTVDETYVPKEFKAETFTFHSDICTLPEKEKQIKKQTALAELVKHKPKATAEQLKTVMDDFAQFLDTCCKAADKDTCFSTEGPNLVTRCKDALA

| binding result (Rabbit serum albumin) | Kd (human serum albumin) [nM] | koff (human serum albumin) [s⁻¹] | binding result [2] | binding result [3] | binding result (Rat serum albumin) | binding result (Mouse serum albumin) | binding result [4] | Molecule | t1/2 in mouse serum [1] |
| --- | --- | --- | --- | --- | --- | --- | --- | --- | --- |
|  |  |  |  |  |  |  |  | O=C1OC2(c3ccc(O)cc3Oc3cc(O)ccc32)c2ccccc21 [Fluorescein] | about 8 min |
| no binding | 8.38 | 0.000304 | no binding (tested: 250 nM) | no binding (tested: 250 nM) |  |  |  | Nanofitin F06 (designed binder, also called anti-albumin Nanofitin) VKVKFVFSGEEKEVETSKIKWVLRWGKAVGFKYDDQGKIGYGFVAEKDAPKELLDMLARAEREK |  |
| no binding |  |  |  |  | binds | binds | binds | Nanofitin B11 (designed binder, Variant of Sac7d; also called anti-albumin Nanofitin) VKVKFWPRGEEKVVDTSKIAWVLRADKTVMFKYDDNGKKGYGVVLEKDAPKELLDMLARAEREK |  |
